Test results taken from paper PMC5296750.
“And” between values parts separate entries of the source, which are not always exact repeats. Equal values may be shown once.

Experiments:
[1] = target: Pyrococcus abyssi minichromosome maintenance protein (PabMCM), full-length, devoid of inteins (Pyrococcus abyssi); test: SEC; Superose 6 10/300 GL, 20 mM HEPES pH 7.4, 150 mM NaCl, 0.3 ml/min; apparent molecular weight estimated against gel-filtration standards
[2] = target: Pyrococcus abyssi minichromosome maintenance protein (PabMCM), full-length, devoid of inteins (Pyrococcus abyssi); test: negative-stain electron microscopy with single particle analysis; 1% uranyl acetate, FEI F20 FEG, 50,000x, MSA classification (IMAGIC-5), 3D reconstruction with EMAN2; map at 22 Å
[3] = target: Pyrococcus abyssi minichromosome maintenance protein (PabMCM), full-length, devoid of inteins (Pyrococcus abyssi); test: cryo-EM, reference-free 2D classification; Quantifoil grids with thin carbon, plunge-frozen; ~33,000 particles, Relion 2D classification without imposed symmetry

What does the source list for “Pyrococcus abyssi minichromosome maintenance protein (PabMCM), full-length, devoid of inteins (enzyme)”?
stoichiometry N [1]: 8; stoichiometry N [2]: 8 and 7; stoichiometry N [3]: 8
